Measurements reported in patent US20100055103A1 (Genentech, published 2010).

Tests used:
[1] = target: T1, Human IL-17F (R&D Systems, cat #1335-IL-025/CF) (human, UniProt Q96PD4 31-163); test: screening of cross-reactive clones; assay not given
T1 construct: That entry is derived from the native cDNA and may include the signal peptide; also called rhIL-17F; recombinant human IL-17F
T1 sequence: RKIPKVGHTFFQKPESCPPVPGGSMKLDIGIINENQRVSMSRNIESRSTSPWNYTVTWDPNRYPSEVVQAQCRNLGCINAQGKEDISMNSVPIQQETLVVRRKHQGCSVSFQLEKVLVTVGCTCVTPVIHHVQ

[2] = target: T2, Recombinant human IL-17A/F heterodimer (human, UniProt Q16552 24-155; Q96PD4 31-163); test: as above
T2 construct: also called IL-17A/F (GNE)

[3] = target: T1, Human IL-17F (R&D Systems, cat …); test: BIAcore SPR, IgG captured by anti-human Fc
[4] = target: T3, Human IL-17F dimer (baculovirus/Hi5-expressed, His-tag removed by thrombin) (human, UniProt Q96PD4 31-163, limits assumed); test: X-ray crystal structure, content of the asymmetric unit
T3 construct: The N-terminal His-tag and thrombin site were introduced and then cleaved off; also called purified recombinant IL17F
T3 sequence: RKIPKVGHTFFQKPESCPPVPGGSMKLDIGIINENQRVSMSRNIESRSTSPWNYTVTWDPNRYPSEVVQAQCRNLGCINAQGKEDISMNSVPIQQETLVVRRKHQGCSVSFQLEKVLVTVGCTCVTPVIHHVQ

T2 sequence (Q16552 24-155 limits assumed, one chain of several): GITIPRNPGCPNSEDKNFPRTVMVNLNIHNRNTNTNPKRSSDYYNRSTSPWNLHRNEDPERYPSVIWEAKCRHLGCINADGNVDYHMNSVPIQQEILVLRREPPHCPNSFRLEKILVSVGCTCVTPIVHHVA

B1: YW278.15 (antibody, V domains shown)
VH: EVQLVESGGGLVQPGGSLRLSCAASGFTFTDYDISWVRQAPGKGLEWVASISPSDGYTYYADSVKGRFTISADTSKNTAYLQMNSLRAEDTAVYYCARYLYWSYVMDYWGQGTLVTVSS
VL: DIQMTQSPSSLSASVGDRVTITCRASQDVSTAVAWYQQKPGKAPKLLIYSASFLYSGVPSRFSGSGSGTDFTLTISSLQPEDFATYYCQQSYTTPPTFGQGTKVEIKR
**Q.** Does B1 bind [1]?
**A.** binds

**Q.** Does B1 bind [2]?
**A.** binds

B2: YW278.15.2 (antibody, V domains shown)
VH: EVQLVESGGGLVQPGGSLRLSCAASGFSFIDYDISWVRQAPGKGLEWVASISPYDGYTYYADSVKGRFTISADTSKNTAYLQMNSLRAEDTAVYYCARYLYWSYVMDYWGQGTLVTVSS
VL: DIQMTQSPSSLSASVGDRVTITCRASQDVSTAVAWYQQKPGKAPKLLIYSASFLYSGVPSRFSGSGSGTDFTLTISSLQPEDFATYYCQQYYIYPATFGQGTKVEIKR
**Q.** Does B2 bind [3]?
**A.** binds

B3: YW278.15.18 (antibody, V domains shown)
VH: EVQLVESGGGLVQPGGSLRLSCAASGFTFTDYDISWVRQAPGKGLEWVASISPPDCYTYYADSVKGRFTISADTSKNTAYLQMNSLRAEDTAVYYCARYLYWSYVMDYWGQGTLVTVSS
VL: DIQMTQSPSSLSASVGDRVTITCRASQDVSTAVAWYQQKPGKAPKLLIYSASFLYSGVPSRFSGSGSGTDFTLTISSLQPEDFATYYCQQSYTAKLTFGQGTKVEIKR
**Q.** Does B3 bind [3]?
**A.** binds

B4: Fab fragment of YW 278.15.18.C55S (Fab, V domains shown)
VH: EVQLVESGGGLVQPGGSLRLSCAASGFTFTDYDISWVRQAPGKGLEWVASISPPDSYTYYADSVKGRFTISADTSKNTAYLQMNSLRAEDTAVYYCARYLYWSYVMDYWGQGTLVTVSS
VL: DIQMTQSPSSLSASVGDRVTITCRASQDVSTAVAWYQQKPGKAPKLLIYSASFLYSGVPSRFSGSGSGTDFTLTISSLQPEDFATYYCQQSYTAKLTFGQGTKVEIKR
notes: also called YW278.15.18C55S Fab
**Q.** Does B4 bind [4]?
**A.** binds
